Reference: paper doi:10.1101/2023.02.27.530324v2

Assays:
[1] = substrate: CCCCCCCCC=O; assay: in vivo luminescence of E. coli cells, aldehyde titration, nonlinear fit; type: cell-based, Photorhabdus luminescens; settings: whole E. coli K12 MG1655 pABX cells; apparent constant; cellular FMNH2 and O2
[2] = substrate: CCCCCC=O; assay: as above; type: cell-based, Photorhabdus luminescens; settings: whole E. coli K12 MG1655 pABX cells; apparent constant; cellular FMNH2 and O2

B1: PlLuxAB (Photorhabdus luminescens) (protein)
chain: MKFGNFLLTYQPPQFSQTEVMKRLVKLGRISEECGFDTVWLLEHHFTEFGLLGNPYVAAAYLLGATKKLNVGTAAIVLPTAHPVRQLEDVNLLDQMSKGRFRFGICRGLYNKDFRVFGTDMNNSRALAECWYGLIKNGMTEGYMEADNEHIKFHKVKVNPAAYSRGGAPVYVVAESASTTEWAAQFGLPMILSWIINTNEKKAQLELYNEVAQEYGHDIHNIDHCLSYITSVDHDSIKAKEICRKFLGHWYDSYVNATTIFDDSDQTRGYDFNKGQWRDFVLKGHKDTNRRIDYSYEINPVGTPQECIDIIQKDIDATGISNICCGFEANGTVDEIIASMKLFQSDVMPFLKEKQRSLLY
Km [1]: 0.025 ± 0.002 mM
Km [2]: 7 ± 2 mM
